In patent US20060193821, “Aptamers to the human IL-12 cytokine family and their use as autoimmune disease therapeutics” (published 2006):

T1: IL-23 (mouse, p19/p40 heterodimer) (Mus musculus, UniProt Q9EQ14;P43432 SEQ:22-196,SEQ:23-335)
T1 sequence 1: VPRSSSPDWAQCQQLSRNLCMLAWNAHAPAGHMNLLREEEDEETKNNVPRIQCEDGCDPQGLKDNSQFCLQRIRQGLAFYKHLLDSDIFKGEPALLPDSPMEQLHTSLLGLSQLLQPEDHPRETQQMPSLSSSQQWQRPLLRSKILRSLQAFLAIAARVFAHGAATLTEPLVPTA
T1 sequence 2: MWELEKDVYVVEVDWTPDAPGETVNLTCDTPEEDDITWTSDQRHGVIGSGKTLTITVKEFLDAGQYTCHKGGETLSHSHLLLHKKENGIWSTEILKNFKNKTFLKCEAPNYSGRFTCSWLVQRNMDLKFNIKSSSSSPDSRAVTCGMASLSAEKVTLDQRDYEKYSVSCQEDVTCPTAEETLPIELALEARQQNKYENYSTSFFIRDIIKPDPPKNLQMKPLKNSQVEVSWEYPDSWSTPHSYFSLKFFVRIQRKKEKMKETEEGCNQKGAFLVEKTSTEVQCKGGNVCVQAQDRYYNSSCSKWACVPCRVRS

T2: IL-12 (mouse, p35/p40 heterodimer) (Mus musculus, UniProt P43431;P43432 SEQ:23-215,SEQ:23-335)
T2 sequence 1: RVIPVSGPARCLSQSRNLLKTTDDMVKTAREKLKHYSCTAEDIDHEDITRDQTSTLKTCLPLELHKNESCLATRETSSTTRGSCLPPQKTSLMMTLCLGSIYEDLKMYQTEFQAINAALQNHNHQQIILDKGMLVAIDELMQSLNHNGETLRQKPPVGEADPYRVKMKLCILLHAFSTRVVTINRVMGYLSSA
T2 sequence 2: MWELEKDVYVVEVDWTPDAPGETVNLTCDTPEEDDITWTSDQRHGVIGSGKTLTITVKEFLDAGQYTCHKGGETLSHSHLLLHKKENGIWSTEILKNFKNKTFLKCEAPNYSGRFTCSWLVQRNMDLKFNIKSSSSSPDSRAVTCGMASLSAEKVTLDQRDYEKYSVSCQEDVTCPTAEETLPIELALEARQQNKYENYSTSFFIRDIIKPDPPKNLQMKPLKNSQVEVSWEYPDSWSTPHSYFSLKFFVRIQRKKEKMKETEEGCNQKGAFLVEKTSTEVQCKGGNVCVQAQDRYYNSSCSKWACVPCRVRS

B1: ARC614 (mixed)
RNA: GGGAGAGGAGAGAACGUUCUACAAGGCGGUACGGGGAGUGUGGGUUGGGGCCGGUCGAUCGAUCGAUCAUCGAUG
modifications: 2'-deoxy A and G, 2'-OMe C and U (dRmY)
B2: ARC621 (mixed)
RNA: GGGAGAGGAGAGAACGUUCUACAGGCGGUUACGGGGGAUGCGGGUGGGACAGGUCGAUCGAUCGAUCAUCGAUG
modifications: 2'-deoxy A and G, 2'-OMe C and U (dRmY)
B3: ARC1631 (ssRNA)
RNA: GGAGCGCACUCAGCCACGCCUACAAUUCACUGUGAUAUAUCGAAUUAUAGCCCUGGUUUCGACCUCUCUGCUAGC
modifications: 2'-F all C and U (rRfY)
B4: ARC635 (mixed)
RNA: GGGAGAGGAGAGAACGUUCUACAGGCUCAAAAGAGGGGGAUGUGGGAGGGGGUCGAUCGAUCGAUCAUCGAUG
modifications: deoxy A,G; 2'-OMe C,U
B5: ARC643 (mixed)
RNA: GGGAGAGGAGAGAACGUUCUACAGGCCGAUGAGGGGGAGCAGUGGGUGGGGGGUCGAUCGAUCGAUCAUCGAUG
modifications: deoxy A,G; 2'-OMe C,U
B6: ARC612 (mixed)
RNA: GGGAGAGGAGAGAACGUUCUACAGGCAAGUAAUUGGGGAGUGCGGGCGGGGGGGUCGAUCGAUCGAUCAUCGAUG
modifications: 2'-deoxy A and G, 2'-OMe C and U (dRmY)
B7: ARC616 (mixed)
RNA: GGGAGAGGAGAGAACGUUCUACGAUAUAGGCGGUACGGGGGGAGUGGGCUGGGGUCGAUCGAUCGAUCAUCGAUG
modifications: 2'-deoxy A and G, 2'-OMe C and U (dRmY)
B8: ARC1628 (ssRNA)
RNA: GGAGCGCACUCAGCCACAGGUGGCUUAAUACUGUAAAGACGUGCGCGCAGAGGGAUUUUCGACCUCUCUGCUAGC
modifications: 2'-F all C and U (rRfY)
B9: ARC632 (mixed)
RNA: GGGAGAGGAGAGAACGUUCUACAAUUGCAGGUGGUGCCGGGGGUUGGGGGCGGGUCGAUCGAUCGAUCAUCGAUG
modifications: 2'-deoxy A and G, 2'-OMe C and U (dRmY)
B10: ARC645 (mixed)
RNA: GGGAGAGGAGAGAACGUUCUACAGGUAGGCAAGAUAUUGGGGGAAGCGGGUGGGGUCGAUCGAUCGAUCAUCGAUG
modifications: deoxy A,G; 2'-OMe C,U
B11: ARC611 (mixed)
RNA: GGGAGAGGAGAGAACGUUCUACAGGCAAGGCAAUUGGGGAGUGUGGGUGGGGGGUCGAUCGAUCGAUCAUCGAUG
modifications: 2'-deoxy A and G, 2'-OMe C and U (dRmY)
B12: ARC620 (mixed)
RNA: GGGAGAGGAGAGAACGUUCUACAGGAAAGGCGCUUGCGGGGGGUGAGGGAGGGGUCGAUCGAUCGAUCAUCGAUG
modifications: deoxy A,G; 2'-OMe C,U
B13: ARC1632 (ssRNA)
RNA: GGAGCGCACUCAGCCACCGGCUUAAUAUCCAAUAGGAACGUUCGCUCUGAGCAGGCGUUUCGACCUCUCUGCUAGC
modifications: 2'-F all C and U (rRfY)
B14: ARC627 (mixed)
RNA: GGGAGAGGAGAGAACGUUCUACAGGCAAGUAAUUGGGGAGUGCGGGCGGGGUGUCGAUCGAUCGAUCAUCGAUG
modifications: 2'-deoxy A and G, 2'-OMe C and U (dRmY)
B15: ARC626 (mixed)
RNA: GGGAGAGGAGAGAACGUUCUACAGGCAAGUAAUUGGGGAGUGCGGGCGGGGGGUCGAUCGAUCGAUCAUCGAUG
modifications: 2'-deoxy A and G, 2'-OMe C and U (dRmY)
B16: ARC1630 (ssRNA)
RNA: GGAGCGCACUCAGCCACUCUACUCGAUAUAGUUUAUCGAGCCGGUGGUAGAUUAUGAUUUCGACCUCUCUGCUAGC
modifications: 2'-F all C and U (rRfY)
B17: ARC644 (mixed)
RNA: GGGAGAGGAGAGAACGUUCUACUAGUGAGGCGGUAACGGGGGGUGAGGGUGGGGUCGAUCGAUCGAUCAUCGAUG
modifications: deoxy A,G; 2'-OMe C,U
B18: ARC1633 (ssRNA)
RNA: GGAGCGCACUCAGCCACAGCUCGGUGGCUUAAUAUCUAUGUGAACGUGCGCAACAGCUUUCGACCUCUCUGCUAGC
modifications: 2'-F all C and U (rRfY)
B19: ARC646 (mixed)
RNA: GGGAGAGGAGAGAACGUUCUACACAUGGCUCGAAAGAGGGGCGUGAGGGUGGGGUCGAUCGAUCGAUCAUCGAUG
modifications: deoxy A,G; 2'-OMe C,U
B20: ARC642 (mixed)
RNA: GGGAGAGGAGAGAACGUUCUACAGGCGCAGCCAGCGGGGAGUGAGGGUGGGGGUCGAUCGAUCGAUCAUCGAUG
modifications: deoxy A,G; 2'-OMe C,U
B21: ARC1629 (ssRNA)
RNA: GGAGCGCACUCAGCCACCGUAAUUCACAAGGUCCCUGAGUGCAGGGUUGUAUGUUUGUUUCGACCUCUCUGCUAGC
modifications: 2'-F all C and U (rRfY)
B22: ARC628 (mixed)
RNA: GGGAGAGGAGAGAACGUUCUACAGGCAAGGCAAUUGGGGAGCGUGGGUGGGGGGGUCGAUCGAUCGAUCAUCGAUG
modifications: deoxy A,G; 2'-OMe C,U
B23: ARC1634 (ssRNA)
RNA: GGAGCGCACUCAGCCACCUUGGGCUUAAUACCUAUCGGAUGUGCGCCUAGCACGGAAUUUCGACCUCUCUGCUAGC
modifications: 2'-F all C and U (rRfY)

How the values were obtained:
[1] = molecular target: T3, IL-23 (human, p19/p40 heterodimer) (Homo sapiens, UniProt Q9NPF7;P29460 SEQ:20-189,SEQ:23-328); assay: filter; 1X PBS, tRNA, ssDNA, BSA, 30 min RT; conditions: tags: R&D Systems, carrier free; label: 5'-32P; G4 (predicted)
Protocol: (§1) The clones were 5′end labeled with γ-³²P ATP, and were assayed for both IL-23 and IL-12 binding in a 3-point dot blot screen (0 nM, 20 nM, and 100 nM h-IL-23; 0 nM, 20 nM, and 100 nM h-IL-12) (data not shown). […] KD values were determined by fitting an equation describing a 1:1 RNA:protein complex to the resulting data (fraction aptamer bound=amplitude*([IL-23]/(KD+[IL-23]))+background binding) (KaleidaGraph v. 3.51, Synergy Software). Results of protein binding characterization for the higher affinity clones are tabulated in Table 13, and corresponding clone sequences are listed in Table 12.

[2] = molecular target: T4, IL-12 (human, p35/p40 heterodimer) (Homo sapiens, UniProt P29459;P29460 SEQ:57-253,SEQ:23-328); assay: filter; 1X PBS, tRNA, ssDNA, BSA, 30 min RT; conditions: label: 5'-32P; G4 (predicted)
Protocol: as §1

[3] = molecular target: T3, IL-23 (human, p19/p40 heterodimer); assay: filter; 1X PBS, 0.1 mg/mL BSA, 30 min RT; conditions: tags: R&D Systems, carrier free; label: 32P
Protocol: (§2) rRfY mIL-23 Protein Binding Analysis: Dot blot binding assays were performed throughout the selections to monitor the protein binding affinity of the pools as previously described. When a significant level of binding of RNA in the presence of mIL-23 was observed, the pools were cloned using a TOPO TA cloning kit (Invitrogen, Carlsbad, Calif.) according to the manufacturer's instructions. For both mIL-23 selections, the Round 7 pool templates were cloned, and 16 individual clones from each selection were assayed using an 8-point mIL-23 titration. Seven of the 32 total clones screened had specific binding curves and are listed below in Table 16. […] Clones with high affinity to mIL-23 were subsequently screened for protein binding against mouse IL-12, human IL-23 and human IL-12 in the same manner.

[4] = molecular target: T4, IL-12 (human, p35/p40 heterodimer); assay: filter; 1X PBS, 0.1 mg/mL BSA, 30 min RT; conditions: label: 32P
Protocol: as §2

[5] = molecular target: T1, IL-23 (mouse, p19/p40 heterodimer); assay: filter; 1X PBS, 0.1 mg/mL BSA, 30 min RT; conditions: tags: isolated in-house; label: 32P
Protocol: as §2

[6] = molecular target: T2, IL-12 (mouse, p35/p40 heterodimer); assay: filter; 1X PBS, 0.1 mg/mL BSA, 30 min RT; conditions: label: 32P
Protocol: as §2

[7] = molecular target: T3, IL-23 (human, p19/p40 heterodimer); assay: filter; PBS, tRNA, ssDNA, BSA; conditions: tags: R&D Systems, carrier free
Protocol: as §1

[8] = molecular target: T4, IL-12 (human, p35/p40 heterodimer); assay: filter; PBS, tRNA, ssDNA, BSA
Protocol: as §1

T3 sequence (Q9NPF7 20-189, chain 1 of 2): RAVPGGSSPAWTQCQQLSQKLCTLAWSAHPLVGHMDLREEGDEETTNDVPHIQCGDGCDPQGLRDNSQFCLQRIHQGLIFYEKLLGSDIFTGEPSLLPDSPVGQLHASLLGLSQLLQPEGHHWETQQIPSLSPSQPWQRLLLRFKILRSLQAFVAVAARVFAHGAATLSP
T3 sequence (P29460 23-328, chain 2 of 2): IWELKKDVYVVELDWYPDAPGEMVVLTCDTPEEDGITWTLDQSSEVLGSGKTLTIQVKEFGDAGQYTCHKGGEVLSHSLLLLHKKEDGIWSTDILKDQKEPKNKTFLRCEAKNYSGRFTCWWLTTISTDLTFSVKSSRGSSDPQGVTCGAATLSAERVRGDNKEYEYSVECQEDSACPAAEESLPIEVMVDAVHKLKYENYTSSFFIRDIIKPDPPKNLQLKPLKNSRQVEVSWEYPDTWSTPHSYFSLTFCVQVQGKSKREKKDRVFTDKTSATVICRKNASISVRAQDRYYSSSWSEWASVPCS
T4 sequence (P29459 23-219, chain 1 of 2): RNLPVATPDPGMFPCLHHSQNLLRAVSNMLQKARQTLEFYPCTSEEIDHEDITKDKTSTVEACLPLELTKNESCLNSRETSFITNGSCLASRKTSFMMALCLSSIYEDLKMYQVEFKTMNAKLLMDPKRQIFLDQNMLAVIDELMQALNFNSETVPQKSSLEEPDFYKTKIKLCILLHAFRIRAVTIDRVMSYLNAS
T4 sequence (P29460 23-328, chain 2 of 2): as the sequence (P29460 23-328, chain 2 of 2) above

Binder	Kd [1]	Kd [2]	Kd [3]	Kd [4]	Kd [5]	Kd [6]	Kd [7]	Kd [8]
B1	3.1 nM	54.4 nM						
B2	28.8 nM	112 nM						
B3			39 nM	69 nM	33 nM	72 nM		
B4							172 nM	431 nM
B5							71.6 nM	309 nM
B6	5.8 nM	41.7 nM						
B7	13.1 nM	52.1 nM						
B8			52 nM	161 nM	2 nM	6 nM		
B9	19.1 nM	63.9 nM						
B10							33.5 nM	137 nM
B11	21.3 nM	123 nM						
B12							44.8 nM	179 nM
B13			91 nM	186 nM	13 nM	16 nM		
B14	7 nM	79.5 nM						
B15	10.1 nM	69.8 nM						
B16			65 nM	239 nM	14 nM	18 nM		
B17							34.5 nM	193 nM
B18			79 nM	195 nM	17 nM	44 nM		
B19							208 nM	383 nM
B20							37.2 nM	188 nM
B21			31 nM	75 nM	34 nM	103 nM		
B22							57.8 nM	146 nM
B23			39 nM	63 nM	3 nM	29 nM		
